Drawing on paper PMC6921899, “AtDAT1 Is a Key Enzyme of D-Amino Acid Stimulated Ethylene Production in Arabidopsis thaliana” (Frontiers in Plant Science, 2019), this text covers Km for 1 protein.

Substrate in the data set: CSCC[C@@H](N)C(=O)O
Put plainly: D-Ala formation by UPLC-MS after derivatization; Hofstee linearization. In kind it is biochemical, Arabidopsis thaliana. To be noted: pyruvate 50 mM as amino acceptor, standard assay: potassium phosphate 100 mM pH 8, PLP 50 µM, 37 °C.

B1: AtDAT1(Col-0) (Arabidopsis thaliana) (protein)
chain: MAGLSLEFTVNTWNLRSLSQVPCPLRHGFRFPRRLTRRRTILMCSDSSSQSWNVPVLSSYEVGERLKLARGGQQFLAMYSSVVDGITTDPAAMVLPLDDHMVHRGHGVFDTALIINGYLYELDQHLDRILRSASMAKIPLPFDRETIKRILIQTVSVSGCRDGSLRYWLSAGPGDFLLSPSQCLKPTLYAIVIKTNFAINPIGVKVVTSSIPIKPPEFATVKSVNYLPNVLSQMEAEAKGAYAGIWVCKDGFIAEGPNMNVAFVVNGGKELVMPRFDNVLSGCTAKRTLTLAEQLVSKGILKTVKVMDVTVEDGKKADEMMLIGSGIPIRPVIQWDEEFIGEGKEGPIAKALLDLLLEDMRSGPPSVRVLVPY
notes: N-terminal GST tag and C-terminal His tag (pGEX-2TM-GW); E. coli BL21(DE3) RIL; Ni-NTA purified
With B1, the Michaelis constant (Km) (as a rule, the concentration of substrate that gives half-maximal velocity) was determined as 17.4 mM.
